Tests used:
[1] = target: Zika virus (ZIKV) soluble E ectodomain (sE) (Zika virus); assay: SEC-MALS
[2] = target: Zika virus (ZIKV) soluble E ectodomain (sE) (Zika virus); assay: SEC-MALS; pH 8.0; isolated proteins sampled individually; Superdex 200

Substance: Zika virus (ZIKV) soluble E ectodomain (sE) (domain or fragment)
- stoichiometry N [1]: 2
- stoichiometry N [2]: 2

Reference: publication PMC10653854
